Results taken from patent publication US20100254975A1 (Amgen, published 2010).

Assays:
human alpha4beta7 [1] = target: T1, human alpha4beta7 (human, UniProt P13612 34-1032; P26010 20-798); assay: cell-based or functional assay
a4(Q878R)b7 (human) = a4(Q878R)b7 (human) (UniProt P13612); assay: FACS on transfected 293 cells, 1 microG/ml, PE anti-human IgG
a4(V824A)b7 (human) = a4(V824A)b7 (human) (UniProt P13612); assay: as above
a4b7(E97V) (human) = a4b7(E97V) (human) (UniProt P13612); assay: as above
a4b7(E97V) (human), sequence (P13612 34-1032, chain 1 of 2): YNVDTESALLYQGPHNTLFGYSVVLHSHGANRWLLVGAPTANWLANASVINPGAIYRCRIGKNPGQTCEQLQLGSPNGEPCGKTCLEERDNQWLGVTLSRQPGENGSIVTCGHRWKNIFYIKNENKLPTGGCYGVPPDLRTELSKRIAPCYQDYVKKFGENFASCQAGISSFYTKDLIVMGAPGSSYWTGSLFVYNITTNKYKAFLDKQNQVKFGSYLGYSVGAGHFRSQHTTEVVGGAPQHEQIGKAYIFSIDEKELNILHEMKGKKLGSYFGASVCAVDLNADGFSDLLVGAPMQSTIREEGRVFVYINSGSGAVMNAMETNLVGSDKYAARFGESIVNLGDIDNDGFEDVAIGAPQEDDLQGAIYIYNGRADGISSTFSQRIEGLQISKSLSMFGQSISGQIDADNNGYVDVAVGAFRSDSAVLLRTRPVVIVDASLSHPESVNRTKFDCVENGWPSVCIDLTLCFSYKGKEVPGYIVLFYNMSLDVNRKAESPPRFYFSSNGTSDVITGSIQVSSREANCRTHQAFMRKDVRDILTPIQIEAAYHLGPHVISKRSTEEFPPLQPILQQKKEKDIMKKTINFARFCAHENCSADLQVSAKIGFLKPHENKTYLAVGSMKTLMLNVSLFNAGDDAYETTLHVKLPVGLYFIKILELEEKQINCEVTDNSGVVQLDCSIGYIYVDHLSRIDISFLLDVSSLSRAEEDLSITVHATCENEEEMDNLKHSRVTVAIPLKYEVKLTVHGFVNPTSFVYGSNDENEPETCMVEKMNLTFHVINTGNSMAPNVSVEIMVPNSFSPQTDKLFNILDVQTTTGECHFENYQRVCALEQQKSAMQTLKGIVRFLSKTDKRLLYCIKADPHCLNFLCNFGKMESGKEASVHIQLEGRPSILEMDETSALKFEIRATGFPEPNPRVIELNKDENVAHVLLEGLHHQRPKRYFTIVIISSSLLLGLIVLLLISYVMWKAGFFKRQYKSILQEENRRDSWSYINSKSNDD
a4b7(E97V) (human), sequence (P26010 20-798 E97V, chain 2 of 2, further chain): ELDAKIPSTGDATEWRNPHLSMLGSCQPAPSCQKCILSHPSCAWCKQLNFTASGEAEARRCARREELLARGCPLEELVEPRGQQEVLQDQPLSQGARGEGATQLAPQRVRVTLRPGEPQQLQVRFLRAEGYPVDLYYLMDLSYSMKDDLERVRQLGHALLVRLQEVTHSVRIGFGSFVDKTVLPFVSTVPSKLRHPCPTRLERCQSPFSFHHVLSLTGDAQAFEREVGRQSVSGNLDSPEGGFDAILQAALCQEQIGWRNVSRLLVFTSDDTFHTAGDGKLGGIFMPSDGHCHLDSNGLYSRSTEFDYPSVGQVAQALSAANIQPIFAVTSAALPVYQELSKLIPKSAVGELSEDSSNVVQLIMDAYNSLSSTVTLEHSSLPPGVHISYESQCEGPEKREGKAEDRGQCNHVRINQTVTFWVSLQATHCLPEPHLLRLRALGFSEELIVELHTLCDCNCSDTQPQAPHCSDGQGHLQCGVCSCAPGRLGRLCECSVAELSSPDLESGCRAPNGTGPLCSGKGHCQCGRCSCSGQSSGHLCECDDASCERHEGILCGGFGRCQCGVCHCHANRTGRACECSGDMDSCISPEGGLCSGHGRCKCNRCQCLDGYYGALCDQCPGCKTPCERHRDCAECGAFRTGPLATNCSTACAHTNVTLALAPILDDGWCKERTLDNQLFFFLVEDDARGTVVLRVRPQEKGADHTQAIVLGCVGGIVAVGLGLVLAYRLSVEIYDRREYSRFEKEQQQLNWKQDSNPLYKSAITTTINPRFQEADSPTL

a4b7(G629S) (human) = a4b7(G629S) (human) (UniProt P13612); assay: as above
a4b7(G629S) (human), sequence (P13612 34-1032, chain 1 of 2): as the sequence (P13612 34-1032, chain 1 of 2) above
a4b7(G629S) (human), sequence (P26010 20-798 G629S, chain 2 of 2, further chain): as the sequence (P26010 20-798 E97V, chain 2 of 2, further chain) above, with V78E, G610S counted along it

a4b7(R213S) (human) = a4b7(R213S) (human) (UniProt P13612); assay: as above
a4b7(R213S) (human), sequence (P13612 34-1032, chain 1 of 2): as the sequence (P13612 34-1032, chain 1 of 2) above
a4b7(R213S) (human), sequence (P26010 20-798 R213S, chain 2 of 2, further chain): as the sequence (P26010 20-798 E97V, chain 2 of 2, further chain) above, with V78E, R194S counted along it

human alpha4beta7 [2] = target: T1, human alpha4beta7; assay: as above
Source text: Point mutant constructs representing amino acid altering SNPs (a4b7(E97V); a4b7(R213S); a4b7(G629S; a4(V824A)b7; a4(Q878R)b7) in the extracellular domains of both alpha4 and beta7 were generated. Each point mutant construct was transfected to 293 cells along with the wild-type partner expression construct. Transfected 293 cells were first stained with 1 microG/ml of human IgG or anti-alpha4beta7 antibody, washed with PBS, and the stained with phycoerytherin conjugated secondary antibody goat-anti human IgG. After washing with PBS, cells were analyzed by fluorescence activated cell sorting, for example, with a FACSCalibur™ (BD Biosciences, San Jose Calif.).

human alpha4beta7 [3] = target: T1, human alpha4beta7; assay: FACS, biotinylated antibody on human CD4+CD45RA- memory T cells
Description: Human peripheral blood mononuclear cells (PBMC; fresh or frozen and thawed, for example in phosphate buffered saline with 2% FBS) are washed and resuspended in HEPES buffer (30 mM HEPES+[…]) with 1% BSA, with or without 1 mM MnCl₂ (depending on the experiment; Mn²⁺ is necessary for MAdCAM-1 binding) and plated into 96 well plates (10⁶cells/well). Cells are incubated with 10 microG/ml human IgG for 30 minutes on ice to block nonspecific binding. Cells are then incubated with serial dilutions of biotinylated anti-alpha4beta7 antibodies in 96 well plates for one hour on ice, followed by addition of 1:100 dilution of streptavidin-phycoerythrin (PE; Jackson ImmunoResearch Laboratories Inc., West Grove, Pa.), 4 microL CD3-Pacific Blue, CD4-PerCP-Cy5.5 and CD45RA-fluorescein isothiocyanate (FITC) (BD Biosciences, San Jose Calif.) for a final volume of 100 microL, and incubated for another hour on ice. Cells were washed twice with HEPES buffer (with or without MnCl₂, correspondingly) and then fixed in 200 microL HEPES buffer plus 0.5% paraformaldehyde (again, with or without MnCl₂, correspondingly). The percentage of positive alpha4beta7 antibody binding CD4+CD45RA-memory T cells is determined using a fluorescence activated cell sorter (FACS), for example, a BD™ LSR II benchtop flow cytometer (BD Biosciences, San Jose Calif.).

human alpha4beta7 [4] = target: T1, human alpha4beta7; assay: FACS competition, blocks biotinylated MAdCAM-1-Fc binding to human CD4+CD45RA- memory T cells
Description: PBMC (fresh or frozen as described previously) are washed and resuspended in HEPES buffer (30 mM HEPES+[…]) with 1% BSA and 1 mM MnCl. to a final concentration of 10⁷cells/ml. Cells are blocked as described previously; after blocking, cells are incubated with a serial dilution of anti-alpha4beta7 antibody (or appropriate control) in 96 well plates for 30 minutes on ice, and then with 0.3 microG/ml biotinylated MAdCAM-1-Fc protein for another one hour.
After two washes in HEPES buffer with 1 mM MnCl, cells are treated with 1:100 dilution of streptavidin-PE, 4 microL CD3-Pacific Blue, CD4-PerCP-Cy5.5 and CD45RA-FITC as described previously, in a final volume of 100 microL. After one hour incubation on ice, cells are washed twice with HEPES buffer with 1 mM MnCl and then fixed in 200 microL buffer plus 0.5% paraformaldehyde. The percentage of positive MAdCAM-1-Fc binding CD4+CD45RA-memory T cells is determined by fluorescence activated cell sorter (FACS) analysis, as described previously.

a4(V824A)b7 (human), sequence (P13612 34-1032 V824A, chain 1 of 2): as the sequence (P13612 34-1032, chain 1 of 2) above, with V791A counted along it
a4(V824A)b7 (human), sequence (P26010 20-798, chain 2 of 2, further chain): as the sequence (P26010 20-798 E97V, chain 2 of 2, further chain) above, with V78E counted along it
a4(Q878R)b7 (human), sequence (P13612 34-1032, chain 1 of 2): as the sequence (P13612 34-1032, chain 1 of 2) above
a4(Q878R)b7 (human), sequence (P26010 20-798, chain 2 of 2, further chain): as the sequence (P26010 20-798 E97V, chain 2 of 2, further chain) above, with V78E counted along it
T1 sequence (P13612 34-1032, chain 1 of 2): as the sequence (P13612 34-1032, chain 1 of 2) above
T1 sequence (P26010 20-798, chain 2 of 2): as the sequence (P26010 20-798 E97V, chain 2 of 2, further chain) above, with V78E counted along it

Row | HUT78 Adhesion IC50 (human alpha4beta7 [1]) | fluorescence staining intensity (geometric mean) (a4(Q878R)b7 (human)) | fluorescence staining intensity (geometric mean) (a4(V824A)b7 (human)) | fluorescence staining intensity (geometric mean) (a4b7(E97V) (human)) | fluorescence staining intensity (geometric mean) (a4b7(G629S) (human)) | fluorescence staining intensity (geometric mean) (a4b7(R213S) (human)) | fluorescence staining intensity (geometric mean) (human alpha4beta7 [2]) | EC50 (human alpha4beta7 [3]) | IC50 (human alpha4beta7 [4]) | Binder
1 | 6.9 ng/mL | 58 | 86 | 113 | 64 | 38 | 99 | 32.6 ng/mL | 99.6 ng/mL | 26G2 (antibody, V domains shown, Fully human monoclonal from XenoMouse (human IgG2 or IgG4); kappa light chain; also called 26G2k; 26G2K) VH: QVQLVESGGGLVKPGGSLRLSCAASGFTFSDYYMSWIRQAPGKGLEWVSYISSIGSAIHYADSVKGRFTISRDNAKNSLYLQMNSLRAEDTAVYYCAREYSSGWAYFDYWGQGTLVTVSS VL: DIQMTQSPSSVSASVGDRVTITCRASQDISSWLAWYQQKPGTAPKVLIYSASSLQNGVPSRFSGRGSGTDFALTISSLQPEDFATYYCQQADSFPWTFGRGTKVEIK
2 | 13.7 ng/mL | 51 | 77 | 106 | 59 | 33 | 96 | – | 77.6 ng/mL | 25C9 (antibody, V domains shown, Fully human monoclonal from XenoMouse (human IgG2 or IgG4); kappa light chain; also called 25C9k; 25C9K) VH: QVQLVESGGGLVKPGGSLRLSCAASGFTFNDYYMSWIRQAPGKGLEWVSYISSSGSAIHYADSVKGRFTISRDNAKNSLYLQMNSLRAEDTAVYYCAREYSSGWAYFDYWGQGTLVTVSS VL: DIQMTQSPSSVSASVGDRVTITCRASQDISSWLAWYQRKPGKAPKVLIYSASSLQSGVPSRFSGSGSGTDFTLTISSLQPEDFATYYCQQADSFPWTFGQGTKVEIK
3 | 3.7 ng/mL | 58 | 85 | 108 | 65 | 58 | 97 | 5.1 ng/mL | 23.2 ng/mL | 22B2 (antibody, V domains shown, Fully human monoclonal from XenoMouse (human IgG2 or IgG4); kappa light chain; also called 22B2K; 22B2H) VH: EVQLVQSGAEVKEPGESLKISCKGSGYIFTSYWIAWVRQLPGKGLEWMGIIDPNDSDTRYSPSFQGQVTISADKSIHTAYLQWSSLKASDTAMYYCATHRLWLGTLPGGFYIWGQGTMVTVSS VL: DVQMTQSPSSLSASVGDRVTITCQASQDITDYLNWYQQKPGKAPKLLIYDTSNLEAGVPSRFSGSGSGTDFTFTISSLQPEDIATYYCQQYDILPYSFGQGTDLEIK
4 | 8.9 ng/mL | – | – | – | – | – | 93 | 9.3 ng/mL | 14.1 ng/mL | 26H3 (antibody, V domains shown, Fully human monoclonal from XenoMouse (human IgG2 or IgG4); kappa light chain; also called 26H3K; 26H3H) VH: EVQLVQSGAEVKKPGESLKISCKGSGYSFTGYWIGWVRQMPGKGLEWMGIIYPYDSDTRYSPSFQGQVTISADKSINTAYLQWSSLKASDTAMFYCASHRLWLGEFPGPLNIWGQGTMVTVSS VL: DIQMTQSPSSLSASVGDRVTITCQASQDISNYLNWYQQKPGKAPKLLIYDASNLETGVPSRFSGSGSGTDFTFTINSLQPEDIATYFCQQYDNLPCSFGQGTKLEIK
5 | 6.1 ng/mL | 70 | 102 | 135 | 80 | 31 | 122 | 4.9 ng/mL | 6.2 ng/mL | 1A10 (antibody, V domains shown, Fully human monoclonal from XenoMouse XG2kl or XG4kl mice (human IgG2 or IgG4); kappa light chain; also called 1A10K; 1A10H) VH: QVQLVQSGAEVKKPGASVKVSCKVSGYTLNDLSMHWVRQAPGKGLEWMGGFDPAEGKIISAQKFQDRVTMTDDTSTDTAYMELSSLRSEDSAVYYCATLDFSSWFDPWGQGTLVTVSS VL: DIQMTQSPSSVSASVGDRVTITCRASQGVSSWLAWYQQKPGMAPKLLIYAASILQSGVPSRFSGSGSGTDFTLTISSLQPEDFATYYCQQANSFPWTFGQGTKVEIK
6 | 7.5 ng/mL | 71 | 110 | 135 | 80 | 31 | 124 | 5.6 ng/mL | 6.2 ng/mL | 3A5 (antibody, V domains shown, Fully human monoclonal from XenoMouse (human IgG2 or IgG4); kappa light chain; also called 3A5K; 3A5H) VH: QVQLVQSGAEVKKPGASVKVSCKVSGYTLNDLSMHWVRQAPGKGLEWMGGFDPAEGKIISAQKFQDRVTMTDDTSTDTAYMELSSLRSEDSAVYYCATLDFSSWFDPWGQGTLVTVSS VL: DIQMTQSPSSVSASVGDRVTITCRASQGVISWLAWYQQKPGMAPKLLIYAASILQSGVPSRFSGSGSGTDFTLTISSLQPEDFATYYCQQANSFPWTFGQGTNVEIK
7 | 14.9 ng/mL | 58 | 88 | 116 | 68 | 59 | 102 | 6.3 ng/mL | 8.7 ng/mL | 27G8 (antibody, V domains shown, Fully human monoclonal from XenoMouse (human IgG2 or IgG4); lambda light chain; PE-conjugated in the cynomolgus study; also called 27G8L; 27G8H) VH: EVQLVESGGGLVQPGGSLRLSCAASGFTFSSYWMSWVRQASGKGLEWVANIKQDGSEKYYVDSVKGRFTISRDNAKNSLYLQMNSLRAEDTAVYYCAREGGYDWNYADYYGMDVWGQGTTVTVSS VL: QSVLTQPPSVSEAPRQRVTISCSGSNSNIGNNPVNWYQLFPGRAPKLLIYHDDLLPSGVSDRFSGSRSGTSASLAISGLQSEDETDYYCTAWDDSLNGWVFGGGTKLTVL
8 | 12.2 ng/mL | 46 | 67 | 108 | 59 | 46 | 94 | 32.9 ng/mL | 103 ng/mL | 19G6 (antibody, V domains shown, Fully human monoclonal from XenoMouse (human IgG2 or IgG4); kappa light chain; also called 19G6K; 19G6H) VH: QVQLVESGGDLVKPGGSLRLSCAASGFTFSDYYMSWIRQAPGKGLEWISYISSSGSTMYYADSVKGRFTISRVNAKNSLYLQMNSLRAEDTAVYYCARDRSSGLVSFDYWGQGTLVTVSS VL: DIQMTQSPSSLSASVGDRVTISCQASQDINTYLNWYQQKPGKVPKLLIYDASNLETGVPSRFSGSGSGTDFTFTISGLQPEDIATYYCQQFDNLPITFGQGTRLEIK
